# Assays:
# Details in all cases: both partners purified
# Human fibrinogen = Human fibrinogen (human, UniProt P02671 36-866; P02675 45-491; P02679 27-453); assay: ELISA; Fg coated on wells (5 μg/ml, 0.5 μg/well); GST-vWbp or GST-Coa proteins in 1% BSA, 0.05% Tween 20, TBS, 1 h at room temperature; detected with HRP anti-GST; one-site fit, apparent KD, mean of three experiments
# [1] = biological target: T1, GST-Coa (full-length Coagulase) (S. aureus strain Newman); assay: ELISA; GST-vWbp or GST-Coa coated on wells (5 μg/ml, 0.5 μg/well); soluble Fg in 1% BSA, 0.05% Tween 20, TBS; detected with HRP anti-human Fg; one-site fit, apparent KD, mean of three experiments
# T1 construct: Coagulase (Coa), S. aureus strain Newman, coa gene amplified from chromosomal DNA; cloning described in Ko et al., 2016; the recombinant protein probably lacks it; also called intact Coa; source: E. coli BL21 (DE3)-derivative Acella, purified (glutathione-Sepharose 4B, gel permeation); not shown: GST, N-terminal, kept
# [2] = biological target: T2, GST-vWbp (full-length von Willebrand factor binding protein) (S. aureus strain Newman); assay: as above
# T2 construct: Cloned in pGEX-5x-1; also called full-length vWbp; source: E. coli BL21 (DE3)-derivative Acella, purified (glutathione-Sepharose 4B, gel permeation); not shown: GST, N-terminal, kept
# [3] = biological target: T1, GST-Coa (full-length Coagulase); assay: ELISA; Fg coated on wells (5 μg/ml, 0.5 μg/well); GST-vWbp or GST-Coa proteins in 1% BSA, 0.05% Tween 20, TBS, 1 h at room temperature; detected with HRP anti-GST; one-site fit, apparent KD, mean of three experiments
# [4] = biological target: T2, GST-vWbp (full-length von Willebrand …); assay: as above
# Chain of Human fibrinogen (P02671 36-866, one chain of several): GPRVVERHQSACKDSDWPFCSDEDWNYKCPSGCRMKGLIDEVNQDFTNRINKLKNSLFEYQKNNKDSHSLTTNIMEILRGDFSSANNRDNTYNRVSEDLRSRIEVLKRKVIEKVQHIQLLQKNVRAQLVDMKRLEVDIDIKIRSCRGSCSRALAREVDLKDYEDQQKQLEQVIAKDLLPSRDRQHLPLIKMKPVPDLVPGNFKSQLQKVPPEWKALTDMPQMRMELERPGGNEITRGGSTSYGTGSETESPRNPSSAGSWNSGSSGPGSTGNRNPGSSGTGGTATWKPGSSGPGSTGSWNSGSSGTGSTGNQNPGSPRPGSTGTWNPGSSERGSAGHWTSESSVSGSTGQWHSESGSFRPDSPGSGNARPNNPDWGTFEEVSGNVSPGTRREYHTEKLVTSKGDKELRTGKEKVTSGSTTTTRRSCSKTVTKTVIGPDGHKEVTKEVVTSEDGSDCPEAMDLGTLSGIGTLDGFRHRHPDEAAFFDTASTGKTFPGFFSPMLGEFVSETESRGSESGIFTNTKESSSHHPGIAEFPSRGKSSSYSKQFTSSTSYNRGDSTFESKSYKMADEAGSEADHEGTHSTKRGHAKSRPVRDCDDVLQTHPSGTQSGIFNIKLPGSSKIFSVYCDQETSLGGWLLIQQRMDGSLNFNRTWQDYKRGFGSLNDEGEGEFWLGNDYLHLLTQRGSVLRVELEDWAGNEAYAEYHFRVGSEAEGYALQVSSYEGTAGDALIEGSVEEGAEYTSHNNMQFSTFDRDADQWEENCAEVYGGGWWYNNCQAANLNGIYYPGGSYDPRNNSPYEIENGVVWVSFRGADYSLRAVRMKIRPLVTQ
Binder,Kd (Human fibrinogen),Kd [1],Kd [2],Kd [3],Kd [4]
"GST-Coa-C (C-terminal half of Coa) (domain or fragment, plasma-purified hexamer (AαBβγ)2, disulfide-linked, N-glycosylated, fibrinopeptides A and B retained. Predominant plasma forms assumed: 610-residue Aα and 411-residue γA (the P02679 canonical …)) ETETKSPVVKEEKKVEEPQAPKVDNQQEVKTTAGKAEETTQPVAQPLVKIPQGTITGEIVKGPEYPTMENKTVQGEIVQGPDFLTMEQSGPSLSNNYTNPPLTNPILEGLEGSSSKLEIKPQGTESTLKGTQGESSDIEVKPQATETTEASQYGPRPQFNKTPKYVKYRDAGTGIREYNDGTFGYEARPRFNKPSETNAYNVTTHANGQVSYGARPTYKKPSETNAYNVTTHANGQVSYGARPTQNKPSKTNAYNVTTHGNGQVSYGARPTQNKPSKTNAYNVTTHANGQVSYGARPTYKKPSKTNAYNVTTHADGTATYGPRVTK",0.46 nM,,,,
"Human fibrinogen (complex, plasma-purified hexamer (AαBβγ)2, disulfide-linked, N-glycosylated, fibrinopeptides A and B retained. Predominant plasma forms assumed: 610-residue Aα and 411-residue γA (the P02679 canonical …)) chain 1: ADSGEGDFLAEGGGVRGPRVVERHQSACKDSDWPFCSDEDWNYKCPSGCRMKGLIDEVNQDFTNRINKLKNSLFEYQKNNKDSHSLTTNIMEILRGDFSSANNRDNTYNRVSEDLRSRIEVLKRKVIEKVQHIQLLQKNVRAQLVDMKRLEVDIDIKIRSCRGSCSRALAREVDLKDYEDQQKQLEQVIAKDLLPSRDRQHLPLIKMKPVPDLVPGNFKSQLQKVPPEWKALTDMPQMRMELERPGGNEITRGGSTSYGTGSETESPRNPSSAGSWNSGSSGPGSTGNRNPGSSGTGGTATWKPGSSGPGSTGSWNSGSSGTGSTGNQNPGSPRPGSTGTWNPGSSERGSAGHWTSESSVSGSTGQWHSESGSFRPDSPGSGNARPNNPDWGTFEEVSGNVSPGTRREYHTEKLVTSKGDKELRTGKEKVTSGSTTTTRRSCSKTVTKTVIGPDGHKEVTKEVVTSEDGSDCPEAMDLGTLSGIGTLDGFRHRHPDEAAFFDTASTGKTFPGFFSPMLGEFVSETESRGSESGIFTNTKESSSHHPGIAEFPSRGKSSSYSKQFTSSTSYNRGDSTFESKSYKMADEAGSEADHEGTHSTKRGHAKSRPV chain 2: QGVNDNEEGFFSARGHRPLDKKREEAPSLRPAPPPISGGGYRARPAKAAATQKKVERKAPDAGGCLHADPDLGVLCPTGCQLQEALLQQERPIRNSVDELNNNVEAVSQTSSSSFQYMYLLKDLWQKRQKQVKDNENVVNEYSSELEKHQLYIDETVNSNIPTNLRVLRSILENLRSKIQKLESDVSAQMEYCRTPCTVSCNIPVVSGKECEEIIRKGGETSEMYLIQPDSSVKPYRVYCDMNTENGGWTVIQNRQDGSVDFGRKWDPYKQGFGNVATNTDGKNYCGLPGEYWLGNDKISQLTRMGPTELLIEMEDWKGDKVKAHYGGFTVQNEANKYQISVNKYRGTAGNALMDGASQLMGENRTMTIHNGMFFSTYDRDNDGWLTSDPRKQCSKEDGGGWWYNRCHAANPNGRYYWGGQYTWDMAKHGTDDGVVWMNWKGSWYSMRKMSMKIRPFFPQQ chain 3: YVATRDNCCILDERFGSYCPTTCGIADFLSTYQTKVDKDLQSLEDILHQVENKTSEVKQLIKAIQLTYNPDESSKPNMIDAATLKSRKMLEEIMKYEASILTHDSSIRYLQEIYNSNNQKIVNLKEKVAQLEAQCQEPCKDTVQIHDITGKDCQDIANKGAKQSGLYFIKPLKANQQFLVYCEIDGSGNGWTVFQKRLDGSVDFKKNWIQYKEGFGHLSPTGTTEFWLGNEKIHLISTQSAIPYALRVELEDWNGRTSTADYAMFKVGPEADKYRLTYAYFAGGDAGDAFDGFDFGDDPSDKFFTSHNGMQFSTWDNDNDKFEGNCAEQDGSGWWMNKCHAGHLNGVYYQGGTYSKASTPNGYDNGIIWATWKTRWYSMKKTTMKIIPFNRLTIGEGQQHHLGGAKQAGDV",,0.09 nM,5.3 nM,2.4 nM,9.9 nM
"GST-Coa-N (N-terminal half of Coa) (domain or fragment, plasma-purified hexamer (AαBβγ)2, disulfide-linked, N-glycosylated, fibrinopeptides A and B retained. Predominant plasma forms assumed: 610-residue Aα and 411-residue γA (the P02679 canonical …)) IVTKDYSGKSQVNAGSKNGTLIDSRYLNSALYYLEDYIIYAIGLTNKYEYGDNIYKEAKDRLLEKVLREDQYLLERKKSQYEDYKQWYANYKKENPRTDLKMANFHKYNLEELSMKEYNELQDALKRALDDFHREVKDIKDKNSDLKTFNAAEEDKATKEVYDLVSEIDTLVVSYYGDKDYGEHAKELRAKLDLILGDTDNPHKITNERIKKEMIDDLNSIIDDFFMETKQNRPKSITKYNPTTHNYKTNSDNKPNFDKLVEETKKAVKEADDSWKKKTVKKYG",20 nM,,,,
